Measurements taken from publication PMC7948450.

Target: ancestral flavin-containing monooxygenase 1 (AncFMO1), reconstructed mammalian ancestor of FMO1 (reconstructed mammalian ancestor)
Test: crystal structure; AncFMO1 12.5 mg/ml with 1.0 mM NADP+ in storage buffer with 0.03% DDM; sitting drop, 20 °C, 100 mM Hepes pH 7.5, PEG 4000 10%, glycerol 20%; 3.0 Å; asymmetric unit of two dimers

ancestral flavin-containing monooxygenase 1 (AncFMO1), reconstructed mammalian ancestor of FMO1 (enzyme)
stoichiometry N: 2
